The text below walks through data of patent publication US9975933B2, “Tumor tissue-penetrating peptide specific to neuropilin and fusion protein having same peptide fused therein” (AJOU UNIVERSITY INDUSTRY-ACADEMIC COOPERATION FOUNDATION, priority 2013, dated 2018).

Data set [1] deals with T1, NRP1-b1b2 (b1b2 domain of neuropilin-1) (Homo sapiens, UniProt O14786).
T1 construct: b1b2 domains (273-586) of neuropilin-1
Briefly: SPR (Biacore2000) binding to b1b2 domain of neuropilin-1. As to conditions: for Association rate ka / Dissociation rate kd / Kd: NRP1-b1b2, SPR; for Kd: read-out: Binding affinity KD. The protocol:
(§1) Specifically, each b1b2 domain of neuropilin-1 and -2 was diluted with 10 mM Na-acetate buffer (pH 4.0), and fixed onto CMS sensor chips (GE healthcare, USA) in about 1000 response units (RU). […] After bond and dissociation analysis, the regeneration of CMS chip was performed by streaming a buffer (20 Mm NaOH, 1 M NaCl, pH 10.0) at a stream velocity 30 μl/min for 1 minute.

Data set [2] concerns the target T2, NRP2-b1b2 (b1b2 domain of neuropilin-2) (Homo sapiens, UniProt O60462).
T2 construct: b1b2 domains (275-595) of neuropilin-2
T2 sequence (O60462 275-595): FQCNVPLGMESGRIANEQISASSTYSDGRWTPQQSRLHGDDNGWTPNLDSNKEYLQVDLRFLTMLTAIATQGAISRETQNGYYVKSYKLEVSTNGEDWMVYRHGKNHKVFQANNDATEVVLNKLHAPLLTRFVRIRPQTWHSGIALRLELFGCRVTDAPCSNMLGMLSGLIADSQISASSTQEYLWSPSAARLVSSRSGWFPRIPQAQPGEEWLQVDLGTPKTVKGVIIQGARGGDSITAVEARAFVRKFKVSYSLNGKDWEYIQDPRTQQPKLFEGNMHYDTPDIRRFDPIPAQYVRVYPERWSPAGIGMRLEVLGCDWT
Briefly: SPR (Biacore2000) binding to b1b2 domain of neuropilin-2. The note with it: for Kd: read-out: Binding affinity KD. The protocol: as §1

For data set [3], the system named is neuropilin-1 and -2 expressed on cell surface (SK-OV-3). As to the kind of experiment: FACS binding to neuropilin-1 and -2 expressed on cell surface. The data set is classed as cell-based, human. The protocol:
Specifically, after incubating human ovarian cancer cell line (SK-OV-3) under conditions of 5% CO2 and 37° C., 1×10^5 cells per sample were resuspended in a PBS buffer supplemented with 2% BSA and transferred to a FACS tube for conducting experiments.
Then, the mixture was reacted with cell line SK-OV-3 at 4° C. for 1 hour in the same manner and proteins were stained for conducting FACS analysis. […] This means that Fc-TPP binds specifically to neuropilin-1 and -2.
This means that the binding of Fc-TPP to neuropilin-1 and -2 is specific similar to the original ligands.

In the next data set the test system is PPC-1 cells. As to the kind of experiment: Confocal microscopy of intracellular penetration and co-localization with neuropilin. The data set is classed as cell-based, human. The note with it: 1 μM, 37° C., 1 hour. The protocol:
In order to confirm whether Fc-TPP has intracellular penetrating capacity by neuropilin-1 and -2, like other neuropilin ligands having intracellular penetrating capacity, confocal microscopy was used to observe intracellular penetration and co-localization with neuropilin-1 and -2.
Specifically, 5×10^4 PPC-1 cells were plated into 24-well plates containing DMEM medium 0.5 ml supplemented with 10% FBS per well, followed by incubation at 37° C. for 24 hours at 5% CO2. When the cells were stabilized, each well was washed with PBS 0.5 ml. […] After the medium was removed and each well was washed with PBS, Fc-TPP was stained with an antibody (Sigma) which specifically recognizes the FITC (green fluorescence)-conjugated Fc, and neuropilin-1 and -2 was stained with a primary antibody (SantaCruz) which recognizes each of them and with a TRITC (red fluorescence)-conjugated secondary antibody (Sigma). Nuclei were stained (blue fluorescence) with DAPI and observed under confocal microscopy.

The test system of another data set is VE-cadherin in HUVEC. As to the kind of experiment: Western blot of VE-cadherin in HUVEC. The data set is classed as cell-based, human. The note with it: single peptides and Fc-TPP 1 μM, 10 minutes. An excerpt: During this process, a decrease in vascular endothelial (VE)-cadherin, phosphorylation, etc. of endothelial cells occur. That is, VE-cadherin or epithelial (E)-cadherin involves in adhesion between endothelial cells, while forming the base of adherent junction between endothelial cells and epithelial cells. The change in molecules relieve the density of adherent junction, which results in increasing permeability of blood vessels and improving intracellular permeability.
As an experimental method for indirectly confirming improvement of vascular permeability based thereon, a change in VE-cadherin was confirmed through a Western blot. Specifically, HUVECs were seeded into 6-well plates at a density of 3×10^5 per well, followed by incubation for 24 hours. Thereafter, single peptides and Fc-TPP were treated with 1 μM for 10 minutes to perform a Western blot. Gel subjected to SDS-PAGE was transported into PVDF membrane, a primary antibody (SantaCruz) and an HRP-conjugated secondary antibody (SantaCruz) which recognize VE-cadherin and (3-actin, respectively were used for detection. ImageQuant LAS4000 mini (GE Healthcare) was used for analysis.

The test system of data set [4] is HUVEC. As to the kind of experiment: Transwell assay of vascular endothelial cell permeability. The data set is classed as cell-based, human. The note with it: 30 minutes. The protocol:
Based on the above experimental results, as experiments for confirming the improvement of vascular endothelial cell permeability, single peptides and Fc-TPP were treated to conduct Transwell assay.
Specifically, HUVECs were seeded into Transwell plate (Corning) at a density of 5×10^4 per well in a upper chamber using Endothelial Growth Medium, PromoCell (EGM) medium, followed by incubation at 37° C. for 3 days under 5% CO2 condition. […] Thereafter, Dextran-FITC (Sigma) 50 μg was put into the upper chamber and the medium of the lower chamber was sampled to measure its fluorescence after 30 minutes, using the principle that a fluorescent substance is observed in the lower chamber when the permeability in HUVECs was improved.

In the next data set the test system is E-cadherin in FaDu. As to the kind of experiment: Western blot of E-cadherin in FaDu. The data set is classed as cell-based, human. The protocol:
In order to confirm the effect of TPP on cancer cells, a change in E-cadherin was analyzed in human head and neck cancer cell line FaDu, under the same conditions as above experiments through Western blot.

In the next data set the test system is A431 tumor. As to the kind of experiment: IHC of Fc-TPP infiltration in A431 tumor tissue. The data set is classed as in vivo, Balb/c nude mice. The note with it: A431 xenograft, 5 mg/kg intravenously, 3 hours. The protocol:
3 hours after injection, tumors were extracted from mice to conduct immunohistochemistry experiment. The extracted tumors were cut into 20 μm thick using a frozen section method, and stained with a primary antibody, CD31 antibody (BD Pharmingen), and a TRITC (red fluorescence)-conjugated secondary antibody. Further, in order to observe Fc-TPP distributed in the tissues, FITC (green fluorescence)-conjugated antibodies recognizing Fc were used.

The test system of a further data set is FaDu tumor. Briefly: In vivo Evans Blue assay of vascular permeability. The arrangement: species or system Balb/c nude mice. The note with it: FaDu xenograft, 400 ng, 40 minutes. The protocol: Additionally, in order to confirm the improvement of vascular permeability in vivo, Evans Blue assay was conducted. […] 40 minutes after injection, the mice were perfused through the heart with PBS containing 1% BSA, and tumor tissues were extracted (FIG. 11d). Then, the extracted tissues were put into 1 ml of […] (Sigma) and reacted at 37° C. overnight under mild shaking condition. Thereafter, the supernatant was obtained from centrifugation to measure the absorbance (600 nm), and the amount that Evans Blue penetrated was quantified.

Data set [5] concerns HUVEC. Briefly: Tube formation assay in HUVEC. The data set is classed as cell-based, human. As to conditions: VEGF165A 20 ng/ml, 8 hours. The protocol: As an experiment confirming angiogenesis in vitro based thereon, tube formation assay was conducted. As an experimental method, 50 μl of ECMatrix was injected into 96-well plates and polymerized at 37° C. for 2 hours. […] The incubated cells were observed by a microscope to obtain images.

Where [6] appears, read: single peptides and Fc-TPP 1 μM.

T1 sequence (O14786 273-586): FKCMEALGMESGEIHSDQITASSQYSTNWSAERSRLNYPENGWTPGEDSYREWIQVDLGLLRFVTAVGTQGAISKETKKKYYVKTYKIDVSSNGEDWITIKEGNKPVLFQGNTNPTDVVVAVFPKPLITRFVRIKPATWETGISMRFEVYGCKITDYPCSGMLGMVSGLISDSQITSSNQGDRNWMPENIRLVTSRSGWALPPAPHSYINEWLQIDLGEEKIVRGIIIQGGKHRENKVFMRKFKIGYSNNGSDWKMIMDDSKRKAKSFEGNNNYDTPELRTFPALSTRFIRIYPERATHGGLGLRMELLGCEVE

As to “Fc-15F22p: Human IgG1 Fc with TPP 15F22p (SEQ ID NO: 10) fused to its C-terminus (GGGGSGGGGSGGGGSREAPGAPRSPEPQDQKKPRPRR)”, in [1], the Association rate ka is given as 1.73 ± 0.26 × 10^4 M^−1s^−1, the Dissociation rate kd is recorded as 1.38 ± 0.12 × 10^−3 s^−1 and the Kd was determined as 79.7 nM. In [2], the Association rate ka is 1.34 ± 0.24 × 10^4 M^−1s^−1, the Dissociation rate kd is 1.23 ± 0.16 × 10^−3 s^−1 and the Kd came out at 92.4 nM. Moreover, the “cell binding capacity after reaction in advance with b1b2 domains of neuropilin-1 and -2” value in data set [3] (1 μM protein, 2 μM b1b2 domains, SK-OV-3) is given as “remarkably reduced”. Further, in [3] (Sema3A (Fc-15A22P) / Sema3F (Fc-15F22P) 100 μg/ml), the “cell binding capacity when mixed with parent ligand Sema3A or Sema3F” value is recorded as “reduced”. The “cell binding capacity when mixed with VEGF165A” value in data set [3] (VEGF165A 1 μg/ml) is given as “reduced”. Besides, in the data set with PPC-1 cells, the “co-localization with neuropilin-1 and -2” value was “co-localized with neuropilin-1 and -2”; the “intracellular penetration (confocal microscopy)” value is recorded as “penetrated into cells”. For the same molecule, the “change in VE-cadherin (Western blot)” value with VE-cadherin in HUVEC was “induced a decrease in VE-cadherin”. In addition, the “permeability of HUVEC (Transwell, Dextran-FITC)” value (from here on “permeability of HUVEC”) in the data set with HUVEC [4] (setting [6]) is reported as “improvement of vascular permeability was induced”. The “change in E-cadherin (Western blot)” value with E-cadherin in FaDu was “E-cadherin was decreased”.
Take “Fc-15A22: Human IgG1 Fc with TPP 15A22 (SEQ ID NO: 6) fused to its C-terminus (GGGGSGGGGSGGGGSHTPGNSNKWKHLQENKKGRNRR)”: the “difference in binding affinity between GAGA linker and (GGGGS)3 linker clones” value in [1] (Fc-4A22 compared with Fc-15A22, b1b2 of neuropilin-1 and -2) is on record as “about 10 times”. In data set [1], the Association rate ka is reported as 4.86 ± 0.98 × 10^3 M^−1s^−1, the Dissociation rate kd was 2.95 ± 0.04 × 10^−2 s^−1 and the Kd worked out at 6060 nM. Further, in [2], the Association rate ka is 3.94 ± 0.42 × 10^3 M^−1s^−1, the Dissociation rate kd was 3.87 ± 0.09 × 10^−2 s^−1 and the Kd stood at 9800 nM. Moreover, the “change in VE-cadherin (Western blot)” value in the data set with VE-cadherin in HUVEC is “VE-cadherin was decreased”. The “permeability of HUVEC” value in the data set with HUVEC [4] (setting [6]) is recorded as “permeability of HUVEC was improved”. Further, in the data set on A431 tumor, the “infiltration into tumor tissue (IHC)” value is reported as “infiltrated into tumor cells”. Further, the “change in E-cadherin (Western blot)” value in the data set with E-cadherin in FaDu is reported as “induced a decrease in E-cadherin”.
Consider “VEGF165: Vascular endothelial cell growth factor-A isoform, neuropilin ligand, control group [reference compound]”, for which, in data set [1], the Association rate ka is listed as 9.75 ± 0.53 × 10^5 M^−1s^−1 and the Dissociation rate kd is recorded as 3.42 ± 0.29 × 10^−3 s^−1. Moreover, in data set [2], the Association rate ka is 1.17 ± 0.12 × 10^5 M^−1s^−1 and the Dissociation rate kd is 3.73 ± 0.19 × 10^−3 s^−1. In addition, the “change in VE-cadherin (Western blot)” value with VE-cadherin in HUVEC is given as “a decrease in VE-cadherin was observed”. Also, the “permeability of HUVEC” value in the data set on HUVEC [4] (control ligands about 1.3 nM) is “permeability of HUVEC was improved”. For the same molecule, the “vascular permeability (Evans Blue)” value with FaDu tumor is given as “increased vascular permeability”. Further, the “tube formation of HUVEC” value in the data set on HUVEC [5] is recorded as “increased tube formation”.

B1: Sema3A: Secreted class 3 semaphorin 3A (26-760), neuropilin ligand, control group (protein)
chain: KNNVPRLKLSYKEMLESNNVITFNGLANSSSYHTFLLDEERSRLYVGAKDHIFSFDLVNIKDFQKIVWPVSYTRRDECKWAGKDILKECANFIKVLKAYNQTHLYACGTGAFHPICTYIEIGHHPEDNIFKLENSHFENGRGKSPYDPKLLTASLLIDGELYSGTAADFMGRDFAIFRTLGHHHPIRTEQHDSRWLNDPKFISAHLISESDNPEDDKVYFFFRENAIDGEHSGKATHARIGQICKNDFGGHRSLVNKWTTFLKARLICSVPGPNGIDTHFDELQDVFLMNFKDPKNPVVYGVFTTSSNIFKGSAVCMYSMSDVRRVFLGPYAHRDGPNYQWVPYQGRVPYPRPGTCPSKTFGGFDSTKDLPDDVITFARSHPAMYNPVFPMNNRPIVIKTDVNYQFTQIVVDRVDAEDGQYDVMFIGTDVGTVLKVVSIPKETWYDLEEVLLEEMTVFREPTAISAMELSTKQQQLYIGSTAGVAQLPLHRCDIYGKACAECCLARDPYCAWDGSACSRYFPTAKRRTRRQDIRNGDPLTHCSDLHHDNHHGHSPEERIIYGVENSSTFLECSPKSQRALVYWQFQRRNEERKEEIRVDDHIIRTDQGLLLRSLQQKDSGNYLCHAVEHGFIQTLLKVTLEVIDTEHLEELLHKDDDGDGSKTKEMSNSMTPSQKVWYRDFMQLINHPNLNTMDEFCEQVWKRDRKQRRQRPGHTPGNSNKWKHLQENKKGRNRR
For the molecule B1, in data set [1], the Association rate ka is 2.89 ± 0.07 × 10^4 M^−1s^−1, the Dissociation rate kd was 8.08 ± 0.06 × 10^−4 s^−1 and the Kd came out at 27.9 nM. Also, in data set [2], the Association rate ka was 6.96 ± 0.03 × 10^3 M^−1s^−1, the Dissociation rate kd is 1.61 ± 0.28 × 10^−3 s^−1 and the Kd was 231 nM. In addition, the “change in VE-cadherin (Western blot)” value in the data set on VE-cadherin in HUVEC is “a decrease in VE-cadherin was observed”. The “permeability of HUVEC” value in the data set with HUVEC [4] (control ligands about 1.3 nM) is on record as “permeability of HUVEC was improved”. The “vascular permeability (Evans Blue)” value in the data set with FaDu tumor is on record as “increased vascular permeability”.
